Laboratory results: patent publication US20260000780A1, “B-LYMPHOCYTE SPECIFIC AMATOXIN ANTIBODY CONJUGATES” (priority 2021, published 2026)

How the values were obtained:
[1] = system: Raji cell line (CD37-positive); test: FACS binding / antibodies bound per cell (BD Quantibrite PE), Raji; parameters: species or system human
Description: (§1) Binding of the anti-CD37 monoclonal antibody chHH1-HDP-LALA-D265C to the CD37-positive B-cell leukemia (B-CLL) cell lines MEC-1 and MEC-2 as well as to the human Burkitt lymphoma cell lines Raji and Ramos and to the human B-cell precursor leukemia cell line Nalm-6, which is known to be CD37-negative, were tested by fluorescence-activated cell sorting (FACS) analysis.
(§2) In order to estimate antibodies bound per cell (ABC) by flow cytometry, BD Quantibrite PE tubes (Becton Dickinson) were used, which were run at the same instrument settings as the assay, so that the FL2 axis can be converted into the number of PE molecules bound per cell. By using known ratios of PE to antibodies, PE molecules per cell can then be converted to the number of antibodies per cell (Iyer et al. 1997).

CD37 = molecular target: T1, CD37 (Homo sapiens, UniProt P11049); test: Biacore binding assay (surface-plasmon resonance); details: CD37 construct Ala 113 to Asn 240 with Fc fusion tag, 31.25 nM to 500 nM
T1 construct: A CD37 construct comprising amino acids Ala 113 to Asn 240, expressed in HEK293 cells; Fc fusion tag (Thr 106 to Lys 330); host or cells: HEK293
T1 sequence (P11049 113-240): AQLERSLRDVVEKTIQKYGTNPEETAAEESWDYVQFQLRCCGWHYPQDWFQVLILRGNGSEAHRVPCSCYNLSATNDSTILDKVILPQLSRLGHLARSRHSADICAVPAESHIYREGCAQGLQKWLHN
Description: Binding of the monoclonal antibody chHH1-HDP-LALA-D265C to CD37 was confirmed by surface-plasmon resonance (Biacore) interaction analysis. 0.1 μM chHH1-HDP-LALA-D265C was captured using anti-Fab capture (FAB2G) biosensors. Alternatively, biotinylated monoclonal antibody chHH1-HDP-LALA-D265C was captured by streptavidin (SA) sensors. A CD37 construct comprising amino acids Ala 113 to Asn 240, expressed in HEK293 cells with an Fc fusion tag moiety (Thr 106 to Lys 330), was added to the sensor at concentrations of 31.25 nM to 500 nM (1:2 dilution steps), and binding of the CD37 construct was assessed.

cynomolgus CD37 = test: Cross reactivity with cynomolgus PBMCs by flow cytometry; assay type: binding
Description: Cross reactivity of the anti-CD37 chHH1-HDP-LALA-D265C with cynomolgus peripheral blood mononuclear cells (PBMCs) was assessed by flow cytometry. As control, human PBMCs were stained using the same set of antibodies. FACS analysis was done according to a standard protocol. In brief: PBMCs were resuspend in 300 μL staining medium (3.3×10^5 cells/50 μl staining medium). 50 μl cell suspension for each sample (=3.3×10^5 cells per sample) were piptted into one well of an U-well plate. 50 μl of pre-diluted isotype and antibody solutions were added to the samples in each well and incubated for 30 min on ice, followed by the addition of 100 μl ice-cold PBS and centrifugation at 4° C., 300 g, 6 min. The resulting supernatant was discarded and cells were washed with 200 μl ice-cold PBS, pH 7.4 followed by centrifugation at 4° C., 300 g, 6 min. The wash step was repeated once. The supernatant was discarded and cells resuspended in 100 μl of the secondary antibody solution. For the untreated sample (control) 100 μl staining medium were used. Cells were incubated for 30 min on ice protected from light. 100 μl ice-cold PBS were added and cells were centrifuge at 4° C., 300 g, 6 min. The supernatant was discarded and cells were washed twice with 200 μl ice-cold PBS, pH 7.4 and centrifuged at 4° C., 300 g, 6 min. […]

[2] = system: Nalm-6 cell line (CD37-negative); test: FACS binding / antibodies bound per cell (BD Quantibrite PE), Nalm-6; parameters: species or system human
Description: as §1, §2

Raji-Luc tumor xenograft = test: Disseminated Raji-Luc tumor xenograft model; assay type: in vivo, CB17 Scid mice; details: 3.75 mg/kg (unconjugated antibody); day 89 after treatment
Description: Cytotoxic efficacy studies in vivo were performed using various anti-CD37 antibody amatoxin conjugates in a disseminated Raji-Luc tumor xenograft model over 89 days of treatment.
Tumor cell inoculation was done on day-3 by i.v. injection of 2.5×10^6 Raji-Luc cells in CB17 Scid mice. Treatment was performed on day 0 by single dose i.v. injection at maximum tolerable dose (MTD) of 1/16 and MTD of 1/64 doses of cynomolgus MTD, respectively. Readout of the study was body weight, bioluminescence and survival. Results are shown in FIG. 10 (body weight), FIG. 11 (bioluminescence) and FIG. 12 (survival) at day 89 after treatment. All groups treated with conjugate gained body weight as normal, in contrast to the control group.

[3] = system: MEC-2 cell line (CD37-positive); test: FACS binding / antibodies bound per cell (BD Quantibrite PE), MEC-2
Description: as §1, §2

[4] = system: MEC-1 cell line (CD37-positive); test: FACS binding / antibodies bound per cell (BD Quantibrite PE), MEC-1
Description: as §1, §2

[5] = system: Ramos cell line (CD37-positive); test: FACS binding / antibodies bound per cell (BD Quantibrite PE), Ramos; parameters: species or system human
Description: as §1, §2

B1: chHH1-HDP-LALA-D265C: Unconjugated anti-CD37 antibody, heavy chain SEQ ID No. 11 (234Ala, 235Ala, 265Cys), light chain SEQ ID No. 12 (antibody)
heavy: EIQLQQSGPELVKPGASVKVSCKASGYSFTDYNMYWVKQSHGKSLEWIGYIDPYNGDTTYNQKFKGKATLTVDKSSSTAFIHLNSLTSEDSAVYYCARSPYGHYAMDYWGQGTSVTVSSASTKGPSVFPLAPSSKSTSGGTAALGCLVKDYFPEPVTVSWNSGALTSGVHTFPAVLQSSGLYSLSSVVTVPSSSLGTQTYICNVNHKPSNTKVDKKVEPKSCDKTHTCPPCPAPEAAGGPSVFLFPPKPKDTLMISRTPEVTCVVVCVSHEDPEVKFNWYVDGVEVHNAKTKPREEQYNSTYRVVSVLTVLHQDWLNGKEYKCKVSNKALPAPIEKTISKAKGQPREPQVYTLPPSREEMTKNQVSLTCLVKGFYPSDIAVEWESNGQPENNYKTTPPVLDSDGSFFLYSKLTVDKSRWQQGNVFSCSVMHEALHNHYTQKSLSLSPGK
light: DIVMTQSHKLLSTSVGDRVSITCKASQDVSTAVDWYQQKPGQSPKLLINWASTRHTGVPDRFTGSGSGTDYTLTISSMQAEDLALYYCRQHYSTPFTFGSGTKLEIKRTVAAPSVFIFPPSDEQLKSGTASVVCLLNNFYPREAKVQWKVDNALQSGNSQESVTEQDSKDSTYSLSSTLTLSKADYEKHKVYACEVTHQGLSSPVTKSFNRGEC
modifications: Heavy chain of chHH1-HDP-LALA-D265C comprising amino acid substitutions L235A, L235A and D265C; Light chain of chHH1-HDP, chHH1-HDP-265C, chHH1-HDP-LALA-D265C, respectively
In the case of B1, the “binding by FACS analysis” value [1] is reported as “bind strongly”, the “antibodies bound per cell (ABC) value” ([1]; flow cytometry) is reported as 32,500 and the “binding to CD37 by surface-plasmon resonance (Biacore)” value (CD37) is reported as “confirmed”. For the same molecule, the “specific binding to cynomolgus CD37” value (cynomolgus CD37) was “does not exhibit specific binding”, the “binding by FACS analysis” value ([2]; Nalm-6 (CD37-negative)) was “No binding was detected” and the “antibodies bound per cell (ABC) value” ([2]; Nalm-6, flow cytometry) was 42. The Alive animals (Raji-Luc tumor xenograft) was 0/10, the “binding by FACS analysis” value [3] was “bind strongly” and the “antibodies bound per cell (ABC) value” ([3]; flow cytometry) was 137,200. The “binding by FACS analysis” value [4] was “bind strongly”, the “antibodies bound per cell (ABC) value” ([4]; flow cytometry) was 33,004 and the “binding by FACS analysis” value [5] was “bind strongly”. The “antibodies bound per cell (ABC) value” ([5]; flow cytometry) was 31,500.
